The target in this experiment is HER2 (extracellular domain only), soluble, recombinantly expressed, biotinylated (human) (UniProt P04626). Description: BLI; Octet Red; biotinylated HER2 (10 μg/ml) loaded on streptavidin biosensors, DARPins in solution (eight concentrations, highest 50 nM); PBS pH 7.4, 0.01% BSA, 0.01% Tween 20; 1:1 Langmuir model, global kinetic fit. Background: BLI is a label-free optical method that tracks binding on a fibre tip over time.

Kd, koff and kon data for one molecule are collected here from paper PMC4550541 (Protein Engineering, Design and Selection, 2015).

B1: DARPin F1 (designed binder)
chain: DLGKKLLEAARAGEDDEVRVLMANGADVNAKDEYGLAPLYHATAHGHLEIVEVLLKNGADVNAVDAIGFTPLHLAAFIGHLEIAEVLLRHGADVNAQDKFGKTAFDISIDNVNEDLAEILQKL
notes: source: E. coli M15 (pQE30), purified (His trap; SEC on Superdex 75 for large scale); not shown: His6, N-terminal, kept
For the molecule B1, the dissociation constant (Kd) – broadly, the concentration at which binding is half-saturated – was 0.39 nM; the koff (as a rule, the rate constant with which the complex falls apart) turned out to be 0.00037 s⁻¹; the association rate constant (kon) (in general, a measure of how fast the partners come together) was found to be 950000 M⁻¹ s⁻¹.
